Among the data in paper PMC10397247 are interaction score values, retold here.

One experiment deals with T1, 4H465-AA.
T1 chain: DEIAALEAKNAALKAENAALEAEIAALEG
The experiment can be described thus: two-hybrid library CCmax.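 Further: natural log of median RNA to DNA barcode read ratio; higher means stronger binding.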 As to conditions: mean of both orientations.

For another experiment, the target named is T2, 4H58-AA.
T2 chain: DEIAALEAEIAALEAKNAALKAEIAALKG
The experiment can be described thus: two-hybrid library CCmax.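 Further: natural log of median RNA to DNA barcode read ratio; higher means stronger binding.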 The note with it: mean of both orientations.

Another experiment deals with T3, 4H895-AA.
T3 chain: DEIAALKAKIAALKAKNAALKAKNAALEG
The experiment can be described thus: two-hybrid library CCmax.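 Further: natural log of median RNA to DNA barcode read ratio; higher means stronger binding.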 As to conditions: mean of both orientations.

The target in a further experiment is T4, 4H486-AA.
T4 chain: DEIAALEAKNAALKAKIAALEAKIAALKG
The experiment can be described thus: two-hybrid library CCmax.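 Further: natural log of median RNA to DNA barcode read ratio; higher means stronger binding.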 As to conditions: mean of both orientations.

The target in a further experiment is T5, 4H3782-AA.
T5 chain: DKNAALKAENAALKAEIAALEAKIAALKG
The experiment can be described thus: two-hybrid library CCmax. The note with it: mean of both orientations.

The next experiment addresses T6, 4H535-AA.
T6 chain: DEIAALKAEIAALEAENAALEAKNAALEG
The experiment can be described thus: two-hybrid library CCmax. The note with it: mean of both orientations.

Another experiment concerns the target T7, 4H_BCR.
T7 chain: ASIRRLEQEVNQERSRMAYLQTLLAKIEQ
The experiment can be described thus: two-hybrid library CCmax. The note with it: mean of both orientations.

The target in a further experiment is T8, 4H3705-AA.
T8 chain: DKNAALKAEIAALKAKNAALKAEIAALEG
The experiment can be described thus: two-hybrid library CCmax. The note with it: mean of both orientations.

The target in a further experiment is T9, 4H_APH.
T9 chain: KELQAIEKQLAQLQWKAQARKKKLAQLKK
The experiment can be described thus: two-hybrid library CCmax. The note with it: mean of both orientations.

For the next experiment, the target named is T10, 4H3651-AA.
T10 chain: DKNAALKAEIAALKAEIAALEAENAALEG
The experiment can be described thus: two-hybrid library CCmax.

The target in the next experiment is 4H_GCN4. The experiment can be described thus: two-hybrid library CCmax. As to conditions: mean of both orientations.
4H_GCN4, sequence (chain, as listed by the source): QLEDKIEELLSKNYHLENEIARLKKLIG
For another experiment, the target named is GCN2_T. The experiment can be described thus: two-hybrid library CCmax.
Another experiment has as its target T11, 4H3162-AA.
T11 chain: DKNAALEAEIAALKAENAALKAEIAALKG
The experiment can be described thus: two-hybrid library CCmax. The note with it: mean of both orientations.

A further experiment deals with T12, 4H32-AA.
T12 chain: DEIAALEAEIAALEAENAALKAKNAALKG
The experiment can be described thus: two-hybrid library CCmax. As to conditions: mean of both orientations.

In another experiment the target is T13, 4H3588-AA.
T13 chain: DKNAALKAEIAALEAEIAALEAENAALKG
The experiment can be described thus: two-hybrid library CCmax. As to conditions: mean of both orientations.

The next experiment concerns the target T14, 4H2620-AA.
T14 chain: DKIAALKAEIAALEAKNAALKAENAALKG
The experiment can be described thus: two-hybrid library CCmax. The note with it: mean of both orientations.

The target of the next experiment is T15, 4H3133-AA.
T15 chain: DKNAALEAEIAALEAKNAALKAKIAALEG
The experiment can be described thus: two-hybrid library CCmax. As to conditions: mean of both orientations.

A further experiment has as its target T16, 4H982-AA.
T16 chain: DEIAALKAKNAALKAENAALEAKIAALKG
The experiment can be described thus: two-hybrid library CCmax. As to conditions: mean of both orientations.

Another experiment has as its target T17, 4H3718-AA.
T17 chain: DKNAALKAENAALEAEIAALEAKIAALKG
The experiment can be described thus: two-hybrid library CCmax. As to conditions: mean of both orientations.

In another experiment the target is T18, 4H3606-AA.
T18 chain: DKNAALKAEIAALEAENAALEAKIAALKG
The experiment can be described thus: two-hybrid library CCmax. As to conditions: mean of both orientations.

The target of the next experiment is T19, 4H340-AA.
T19 chain: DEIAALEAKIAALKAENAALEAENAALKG
The experiment can be described thus: two-hybrid library CCmax. As to conditions: mean of both orientations.

The target in another experiment is T20, 4H3865-AA.
T20 chain: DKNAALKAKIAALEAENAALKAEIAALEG
The experiment can be described thus: two-hybrid library CCmax. As to conditions: mean of both orientations.

For a further experiment, the target named is T21, 4H697-AA.
T21 chain: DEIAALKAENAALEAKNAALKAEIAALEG
The experiment can be described thus: two-hybrid library CCmax. The note with it: mean of both orientations.

A further experiment has as its target T22, 4H2198-AA.
T22 chain: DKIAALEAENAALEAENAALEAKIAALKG
The experiment can be described thus: two-hybrid library CCmax.

The target in a further experiment is T23, 4H2648-AA.
T23 chain: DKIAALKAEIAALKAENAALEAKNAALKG
The experiment can be described thus: two-hybrid library CCmax. The note with it: mean of both orientations.

The next experiment addresses T24, 4H2611-AA.
T24 chain: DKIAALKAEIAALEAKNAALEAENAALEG
The experiment can be described thus: two-hybrid library CCmax. The note with it: mean of both orientations.

Another experiment addresses T25, 4H384-AA.
T25 chain: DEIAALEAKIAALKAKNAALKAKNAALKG
The experiment can be described thus: two-hybrid library CCmax. As to conditions: mean of both orientations.

The target in a further experiment is T26, 4H2907-AA.
T26 chain: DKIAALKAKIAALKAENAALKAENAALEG
The experiment can be described thus: two-hybrid library CCmax. The note with it: mean of both orientations.

The target of a further experiment is T27, 4H2553-AA.
T27 chain: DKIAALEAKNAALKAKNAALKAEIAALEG
The experiment can be described thus: two-hybrid library CCmax. The note with it: mean of both orientations.

For the next experiment, the target named is T28, 4H3631-AA.
T28 chain: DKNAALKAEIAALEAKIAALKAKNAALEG
The experiment can be described thus: two-hybrid library CCmax. As to conditions: mean of both orientations.

In another experiment the target is T29, 4H3378-AA.
T29 chain: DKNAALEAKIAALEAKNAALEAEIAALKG
The experiment can be described thus: two-hybrid library CCmax.

Another experiment has as its target T30, 4H3056-AA.
T30 chain: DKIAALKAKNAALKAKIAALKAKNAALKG
The experiment can be described thus: two-hybrid library CCmax. The note with it: mean of both orientations.

The target in the next experiment is T31, 4H3697-AA.
T31 chain: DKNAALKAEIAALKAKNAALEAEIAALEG
The experiment can be described thus: two-hybrid library CCmax. As to conditions: mean of both orientations.

The next experiment has as its target T32, 4H3413-AA.
T32 chain: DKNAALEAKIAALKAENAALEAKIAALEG
The experiment can be described thus: two-hybrid library CCmax. The note with it: mean of both orientations.

A further experiment concerns the target T33, 4H40-bN.
T33 chain: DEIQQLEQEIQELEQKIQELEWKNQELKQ
The experiment can be described thus: two-hybrid library CCNG1.

The target in the next experiment is T34, 4H2839-bN.
T34 chain: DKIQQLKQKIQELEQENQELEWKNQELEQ
The experiment can be described thus: two-hybrid library CCNG1.

The target in another experiment is T35, 4H3057-bN.
T35 chain: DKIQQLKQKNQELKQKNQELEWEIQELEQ
The experiment can be described thus: two-hybrid library CCNG1.

The target in another experiment is T36, 4H3277-bN.
T36 chain: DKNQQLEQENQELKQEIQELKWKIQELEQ
The experiment can be described thus: two-hybrid library CCNG1.

In the next experiment the target is T37, 4H492-bN.
T37 chain: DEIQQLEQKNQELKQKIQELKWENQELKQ
The experiment can be described thus: two-hybrid library CCNG1.

The target of another experiment is T38, 4H319-bN.
T38 chain: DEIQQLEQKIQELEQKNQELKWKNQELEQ
The experiment can be described thus: two-hybrid library CCNG1.

In a further experiment the target is T39, 4H741-bN.
T39 chain: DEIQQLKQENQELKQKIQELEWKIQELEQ
The experiment can be described thus: two-hybrid library CCNG1.

Another experiment concerns the target T40, 4H477-bN.
T40 chain: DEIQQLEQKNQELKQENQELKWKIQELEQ
The experiment can be described thus: two-hybrid library CCNG1.

The target in another experiment is T41, 4H2915-bN.
T41 chain: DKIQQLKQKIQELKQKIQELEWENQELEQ
The experiment can be described thus: two-hybrid library CCNG1.

In the next experiment the target is T42, 4H348-bN.
T42 chain: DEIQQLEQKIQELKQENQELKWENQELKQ
The experiment can be described thus: two-hybrid library CCNG1.

Regarding DKNAALKAEIAALKAEIAALEAENAALEG [4H3651-AA], the interaction score was -1.28 with 4H465-AA; -0.388 with 4H58-AA; 2.08 in the experiment with 4H895-AA; -0.82 with 4H486-AA; -0.2 in the experiment with 4H3782-AA; -1.16 in the experiment with 4H535-AA. Besides, the interaction score is -1.92 in the experiment with 4H_BCR; -1.53 with 4H3705-AA; -1.76 in the experiment with 4H_APH; -0.561 with 4H3651-AA; -1.81 with 4H_GCN4; -1.92 in the experiment with GCN2_T.

Regarding DKIAALEAENAALEAENAALEAKIAALKG [4H2198-AA], the interaction score with 4H3162-AA was -1.38; with 4H32-AA, -0.333; in the experiment with 4H3588-AA it was -1.24; with 4H2620-AA, -0.832; with 4H3133-AA, -0.581; in the experiment with 4H982-AA it was 1.67. Also, the interaction score was -0.339 with 4H3718-AA; -1.01 with 4H3606-AA; -1.2 in the experiment with 4H340-AA; -0.834 with 4H3865-AA; 1 with 4H697-AA; 0.363 with 4H2198-AA. Moreover, the interaction score was -1.34 with 4H2648-AA; -1.63 in the experiment with 4H2611-AA; 1.32 with 4H384-AA; -0.303 with 4H2907-AA; 1.96 in the experiment with 4H2553-AA; -1.38 with 4H3631-AA. For the same molecule, the interaction score was -1.47 with 4H3378-AA, -0.0509 with 4H3056-AA, -1.16 in the experiment with 4H3697-AA and -0.996 in the experiment with 4H3413-AA.

In the case of DKIQQLKQKIQELEQENQELEWKNQELEQ [4H2839-bN], the interaction score was -0.765 with 4H40-bN; -0.536 with 4H2839-bN; -0.124 with 4H3057-bN; -0.558 with 4H3277-bN; -0.542 with 4H492-bN; 1.51 with 4H319-bN. Further, the interaction score with 4H741-bN was -1.58; with 4H477-bN, -1.55; with 4H2915-bN, 0.377; with 4H348-bN, -0.511.
